Data on nine compounds can be found in patent US20240279315A1 (priority 2023, published 2024).

Where two headings read alike, the source gives them in different places.

For assay [1], the target named is hemagglutinin (HA) of influenza A/Guangdong-maonan/2019 H1N1 (influenza A virus A/Guangdong-maonan/2019 (H1N1)). Nature of the assay: cell-based or functional assay.
Assay [2] addresses hemagglutinin (HA) of influenza A/Hong Kong/2671/2019 (Egg) H3N2 (influenza A virus A/Hong Kong/2671/2019 (H3N2)). Briefly: cell-based or functional assay.
Assay [3] deals with hemagglutinin (HA) of influenza A/Michigan/45/2015 pH1N1 (influenza A virus A/Michigan/45/2015 (H1N1)). Nature of the assay: cell-based or functional assay.
The target is the same in assay [4]. Briefly: cell-based or functional assay. This is another data set of the same source.
In assay [5] the target is hemagglutinin (HA) of influenza A/Guangdong-maonan/2019 H1N1 (influenza A virus A/Guangdong-maonan/2019 (H1N1)). Briefly: cell-based or functional assay. The source holds these as a separate data set.
The target of assay [6] is hemagglutinin (HA) of influenza A/Michigan/45/2015 pH1N1 (influenza A virus A/Michigan/45/2015 (H1N1)). Briefly: cell-based or functional assay. The source holds these as a separate data set.
Assay [7] relates to influenza A/Hong Kong/2369/2009 (H1N1pdm) H275Y. The arrangement: species or system BALB/c mice. The following applies: mouse, in vivo.

For SAB-176 Lot 1 (PD1901102QR) (antibody), in assay [1], the HAI titer (Cell) was 512 titer, the HAI titer (Egg) stood at 512 titer, the HAI titer ratio of SAB-176 to hIVIG (Cell) was found to be 16 X and the HAI titer ratio of SAB-176 to hIVIG (Egg) was in the range of 16 to 32 X. Further, in assay [2], the HAI titer (Egg) is 64 titer and the HAI titer ratio of SAB-176 to hIVIG (Egg) lay in the range of 4 to 8 X. The same compound had an HAI titer of drug product in assay [3] of 7680 titer. Besides, in assay [4], the HAI titer stood at 1280 titer. Besides, in assay [5], the HAI titer came out at 512 titer and the HAI titer ratio of SAB-176 to hIVIG lay in the range of 16 to 32 X. In addition, in assay [6], the HAI titer was determined as 512 titer and the HAI titer ratio of SAB-176 to hIVIG was 16 X.

In the case of SAB-176 Lot 2 (PD2001010QR) (antibody), in assay [1], the HAI titer (Cell) was 512 titer, the HAI titer (Egg) amounted to 512 titer, the HAI titer ratio of SAB-176 to hIVIG (Cell) was found to be 16 X and the HAI titer ratio of SAB-176 to hIVIG (Egg) was 16 to 32 X. In assay [2], the HAI titer (Egg) came out at 128 titer and the HAI titer ratio of SAB-176 to hIVIG (Egg) was in the range of 8 to 16 X. For the same compound, in assay [3], the HAI titer was determined as 512 titer, the HAI titer of drug product was found to be 14300 titer and the HAI titer ratio of SAB-176 to hIVIG was found to be 16 X. For the same compound, the HAI titer in assay [4] was 1280 titer.

Take SAB-176 Lot 3 (antibody): in assay [1], the HAI titer (Cell) was found to be 512 titer, the HAI titer (Egg) came out at 512 titer, the HAI titer ratio of SAB-176 to hIVIG (Cell) came to 16 X and the HAI titer ratio of SAB-176 to hIVIG (Egg) was in the range of 16 to 32 X. In addition, in assay [2], the HAI titer (Egg) came to 256 titer and the HAI titer ratio of SAB-176 to hIVIG (Egg) fell in the range of 16 to 32 X. Moreover, in assay [3], the HAI titer was found to be 512 titer and the HAI titer ratio of SAB-176 to hIVIG is 16 X.

SAB-176 (antibody) registered an HAI titer in assay [3] greater than 2048 titer.

In assay [4], SAB-176 Lot 6 (PD2204315QR) (antibody) came in with an HAI titer of 905 titer.

Turning to negative control IgG (antibody), the HAI titer (Cell) in assay [1] was less than 1 titer. For the same compound, the HAI titer (Egg) in assay [1] and in assay [2] was less than 1 titer each time. Further, the HAI titer in assay [3] and in assay [5] was less than 1 titer each time.

Take `CCOC(=O)C1=C[C@@H](OC(CC)CC)[C@H](NC(C)=O)[C@@H](N)C1` [oseltamivir]: the “protection from weight loss” value in assay [7] is recorded as “did not protect mice from weight loss”.

For SAB-176 Lot 4 (PD2102092QR) (antibody), in assay [1], the HAI titer (Cell) is 512 titer, the HAI titer (Egg) came out at 512 titer, the HAI titer of drug product was determined as 7680 titer and the HAI titer ratio of SAB-176 to hIVIG (Cell) came out at 16 X. Also, in assay [1], the HAI titer ratio of SAB-176 to hIVIG (Egg) lay within 16 to 32 X. Also, in assay [2], the HAI titer (Egg) came to 256 titer and the HAI titer ratio of SAB-176 to hIVIG (Egg) lay within 16 to 32 X. Moreover, in assay [3], the HAI titer was 512 titer and the HAI titer ratio of SAB-176 to hIVIG turned out to be 16 X. This compound registered an HAI titer in assay [4] of 1810 titer. Also, in assay [5], the HAI titer was 512 titer and the HAI titer ratio of SAB-176 to hIVIG lay within 16 to 32 X.

SAB-176 Lot 5 (PD2203294QR) (antibody): the HAI titer in assay [4] worked out at 1280 titer.
